Results on six molecules are retold here after paper PMC11076555, “Dishevelled2 activates WGEF via its interaction with a unique internal peptide motif of the GEF” (Communications Biology, 2024).

Usually Kd stands for the constant that tells how readily two partners part at equilibrium.

The chains are these.
B2: Human Dishevelled2 PDZ domain (domain or fragment, UniProt O14641 261-354, looked up)
chain: MSLNIITVTLNMEKYNFLGISIVGQSNERGDGGIYIGSIMKGGAVAADGRIEPGDMLLQVNDMNFENMSNDDAVRVLRDIVHKPGPIVLTVAKC
modifications: Monolith Red-maleimide 2nd generation cysteine-reactive fluorescent label (in the MST experiments)
notes: Dishevelled2 (Dvl2), human, PDZ domain; Addgene plasmid 38876 changed by a stop codon after C354 to remove the peptide fused at the C-terminus of the PDZ; Used unlabelled in the GEF assays and labelled in MST; also called Dvl2^PDZ; hDvl2^PDZ; source: E. coli Rosetta (DE3), purified (Ni-NTA, TEV cleavage, second Ni-NTA, gel filtration); not shown: His6, N-terminal, cleaved

Test [1] concerns the target B2. The experiment in a line: MST; 50 nM fluorescently labelled Dvl2^PDZ (Red-maleimide, cysteine reactive); peptides serially diluted 1:2 16 times from about 3.4 mM, hWGEF (330-581) 138-0.0042 uM; 25 C, 30 min incubation; 10 mM Tris-HCl pH 8, 150 mM NaCl, 2 mM DTT, 5% glycerol, 0.05% Tween20; Monolith NT.115; triplicates. The conditions noted are these: both partners purified.

Test [2] concerns the target Xenopus laevis WGEF (330-856) (Xenopus laevis). The experiment in a line: cell-based or functional assay.
The next test deals with T1, human WGEF (330-581) (human, UniProt Q8IW93 330-581).
T1 construct: Weak-similarity guanine nucleotide exchange factor (WGEF, Arhgef19, Ephexin2), human, residues 330-581; also called hWGEF; hWGEF^330-581; not shown: GST, N-terminal, cleaved
T1 sequence (looked up): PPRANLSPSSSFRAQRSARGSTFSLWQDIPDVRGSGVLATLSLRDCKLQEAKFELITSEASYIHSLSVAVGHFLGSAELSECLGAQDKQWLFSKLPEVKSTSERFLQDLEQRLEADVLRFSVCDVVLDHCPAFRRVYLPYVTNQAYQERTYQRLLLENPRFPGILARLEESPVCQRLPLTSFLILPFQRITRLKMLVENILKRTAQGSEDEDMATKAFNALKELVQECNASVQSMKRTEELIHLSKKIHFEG
The experiment in a line: MST; 50 nM fluorescently labelled Dvl2^PDZ (Red-maleimide, cysteine reactive); peptides serially diluted 1:2 16 times from about 3.4 mM, hWGEF (330-581) 138-0.0042 uM; 25 C, 30 min incubation; 10 mM Tris-HCl pH 8, 150 mM NaCl, 2 mM DTT, 5% glycerol, 0.05% Tween20; Monolith NT.115; triplicates. The conditions noted are these: both partners purified.

B1: N3^pep (peptide)
peptide: EIVLWSDIP
notes: engineered peptide, closest homologue of WGEF^pep; structure with Dvl2^PDZ in PDB 3CC0; also called engineered internal peptide N3; source: synthetic peptide, bought: Sai Biotech
In turn, B1 yielded an equilibrium dissociation constant (Kd) in test [1] of 54 µM. With B2, in test [2], the “GEF activity of xWGEF330 (5 uM) on Mant-GDP loaded RhoA with 0, 25 and 50 uM Dvl2^PDZ; no observable change at 25 uM” value was found to be 4 fold. This molecule registered a dissociation constant (Kd) with human WGEF (330-581) of 7.9 µM.

B3: WGEF^pep (internal PDZ binding motif peptide of WGEF) (peptide)
peptide: GSTFSLWQDIP
notes: also called WGEF IPM peptide; source: synthetic peptide, bought: Sai Biotech
For the molecule B3, the affinity in test [1], expressed as Kd, was 45 µM.

B4: WGEF^pepL6A (peptide)
peptide: GSTFSAWQDIP
notes: WGEF (Arhgef19), human residues 349-359 with L6A; numbers count on: the peptide (1-11); L6 is L354 of human WGEF and L407 of Xenopus WGEF (from the printed limits); source: synthetic peptide, bought: Sai Biotech
B4 showed a Kd in test [1] of 2400 µM.

B5: WGEF^pepI10A (peptide)
peptide: GSTFSLWQDAP
notes: WGEF (Arhgef19), human residues 349-359 with I10A; numbers count on: the peptide (1-11); I10 is I358 of human WGEF (from the printed limits); also called Ile at P1 to Ala; source: synthetic peptide, bought: Sai Biotech
In turn, B5 gave a dissociation constant (Kd) in test [1] of 56 µM.

B6: WGEF^pepQ8A (peptide)
peptide: GSTFSLWADIP
notes: WGEF (Arhgef19), human residues 349-359 with Q8A; numbers count on: the peptide (1-11); Q8 is Q356 of human WGEF (from the printed limits); source: synthetic peptide, bought: Sai Biotech
B6 came in with an equilibrium dissociation constant (Kd) in test [1] of 8.5 µM.
